These results are taken from PMC7615972.

Common to all, as to test: SPR; mouse CACHD1ECD as analyte; FZD CRDs or LRP6 fragments immobilised; equilibrium dissociation constants
Assay [1] has as its target human FZD7 cysteine-rich domain (FZD7CRD) (human) (UniProt O75084).
The target of assay [2] is human LRP6 membrane distal fragment (LRP6_(P1E1P2E2)) (human) (UniProt O75581).
The target in assay [3] is human FZD8 cysteine-rich domain (FZD8CRD) (human) (UniProt Q9H461).
Sequence of human FZD8 cysteine-rich domain (FZD8CRD) (human) (Q9H461 28-694): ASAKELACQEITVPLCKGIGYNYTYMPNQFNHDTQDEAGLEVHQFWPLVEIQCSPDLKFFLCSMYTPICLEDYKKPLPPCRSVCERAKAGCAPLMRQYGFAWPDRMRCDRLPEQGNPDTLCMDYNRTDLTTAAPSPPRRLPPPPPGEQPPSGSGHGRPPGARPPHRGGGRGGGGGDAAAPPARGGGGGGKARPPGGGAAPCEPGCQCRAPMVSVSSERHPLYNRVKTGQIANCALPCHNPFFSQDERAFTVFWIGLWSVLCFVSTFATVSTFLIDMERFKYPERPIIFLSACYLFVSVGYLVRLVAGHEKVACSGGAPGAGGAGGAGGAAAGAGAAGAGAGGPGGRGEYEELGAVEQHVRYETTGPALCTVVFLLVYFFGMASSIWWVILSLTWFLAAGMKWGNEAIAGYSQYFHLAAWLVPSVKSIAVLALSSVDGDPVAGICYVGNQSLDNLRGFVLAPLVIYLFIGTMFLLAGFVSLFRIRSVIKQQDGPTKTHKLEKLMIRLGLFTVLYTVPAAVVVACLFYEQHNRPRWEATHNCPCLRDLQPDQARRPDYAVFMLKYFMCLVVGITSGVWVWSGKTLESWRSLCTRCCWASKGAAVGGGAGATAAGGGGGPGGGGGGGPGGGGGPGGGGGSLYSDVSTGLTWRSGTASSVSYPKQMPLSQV

Sequence of purified mouse CACHD1 extracellular domain (CACHD1ECD) (Q6PDJ1 50-1109): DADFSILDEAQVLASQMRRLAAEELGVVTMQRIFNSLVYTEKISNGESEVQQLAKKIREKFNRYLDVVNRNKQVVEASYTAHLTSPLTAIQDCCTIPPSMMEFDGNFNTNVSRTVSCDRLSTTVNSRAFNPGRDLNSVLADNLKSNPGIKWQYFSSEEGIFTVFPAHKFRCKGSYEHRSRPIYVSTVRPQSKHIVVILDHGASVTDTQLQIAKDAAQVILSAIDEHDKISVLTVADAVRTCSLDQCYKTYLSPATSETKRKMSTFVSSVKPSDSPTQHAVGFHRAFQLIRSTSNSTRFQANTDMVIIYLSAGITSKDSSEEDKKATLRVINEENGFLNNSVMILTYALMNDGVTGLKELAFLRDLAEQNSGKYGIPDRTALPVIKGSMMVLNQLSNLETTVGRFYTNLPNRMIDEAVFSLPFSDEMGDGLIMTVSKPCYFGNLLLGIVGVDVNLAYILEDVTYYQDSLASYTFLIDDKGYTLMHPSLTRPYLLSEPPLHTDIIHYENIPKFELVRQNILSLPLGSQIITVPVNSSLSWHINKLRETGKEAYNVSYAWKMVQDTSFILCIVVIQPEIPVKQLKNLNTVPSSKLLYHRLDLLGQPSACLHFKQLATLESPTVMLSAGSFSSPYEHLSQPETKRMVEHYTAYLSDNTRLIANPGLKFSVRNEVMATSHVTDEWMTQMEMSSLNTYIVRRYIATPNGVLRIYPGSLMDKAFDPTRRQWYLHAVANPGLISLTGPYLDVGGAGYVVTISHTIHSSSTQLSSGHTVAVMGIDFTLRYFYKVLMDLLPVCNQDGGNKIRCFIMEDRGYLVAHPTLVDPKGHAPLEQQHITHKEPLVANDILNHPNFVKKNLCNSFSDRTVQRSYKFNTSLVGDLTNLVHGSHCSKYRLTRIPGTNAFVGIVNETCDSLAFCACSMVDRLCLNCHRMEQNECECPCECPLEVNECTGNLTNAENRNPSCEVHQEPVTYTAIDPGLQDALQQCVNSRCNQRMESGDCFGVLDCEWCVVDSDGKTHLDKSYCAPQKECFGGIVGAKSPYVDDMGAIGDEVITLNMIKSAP
Sequence of human LRP6 membrane distal fragment (LRP6_(P1E1P2E2)) (human) (O75581 20-1613): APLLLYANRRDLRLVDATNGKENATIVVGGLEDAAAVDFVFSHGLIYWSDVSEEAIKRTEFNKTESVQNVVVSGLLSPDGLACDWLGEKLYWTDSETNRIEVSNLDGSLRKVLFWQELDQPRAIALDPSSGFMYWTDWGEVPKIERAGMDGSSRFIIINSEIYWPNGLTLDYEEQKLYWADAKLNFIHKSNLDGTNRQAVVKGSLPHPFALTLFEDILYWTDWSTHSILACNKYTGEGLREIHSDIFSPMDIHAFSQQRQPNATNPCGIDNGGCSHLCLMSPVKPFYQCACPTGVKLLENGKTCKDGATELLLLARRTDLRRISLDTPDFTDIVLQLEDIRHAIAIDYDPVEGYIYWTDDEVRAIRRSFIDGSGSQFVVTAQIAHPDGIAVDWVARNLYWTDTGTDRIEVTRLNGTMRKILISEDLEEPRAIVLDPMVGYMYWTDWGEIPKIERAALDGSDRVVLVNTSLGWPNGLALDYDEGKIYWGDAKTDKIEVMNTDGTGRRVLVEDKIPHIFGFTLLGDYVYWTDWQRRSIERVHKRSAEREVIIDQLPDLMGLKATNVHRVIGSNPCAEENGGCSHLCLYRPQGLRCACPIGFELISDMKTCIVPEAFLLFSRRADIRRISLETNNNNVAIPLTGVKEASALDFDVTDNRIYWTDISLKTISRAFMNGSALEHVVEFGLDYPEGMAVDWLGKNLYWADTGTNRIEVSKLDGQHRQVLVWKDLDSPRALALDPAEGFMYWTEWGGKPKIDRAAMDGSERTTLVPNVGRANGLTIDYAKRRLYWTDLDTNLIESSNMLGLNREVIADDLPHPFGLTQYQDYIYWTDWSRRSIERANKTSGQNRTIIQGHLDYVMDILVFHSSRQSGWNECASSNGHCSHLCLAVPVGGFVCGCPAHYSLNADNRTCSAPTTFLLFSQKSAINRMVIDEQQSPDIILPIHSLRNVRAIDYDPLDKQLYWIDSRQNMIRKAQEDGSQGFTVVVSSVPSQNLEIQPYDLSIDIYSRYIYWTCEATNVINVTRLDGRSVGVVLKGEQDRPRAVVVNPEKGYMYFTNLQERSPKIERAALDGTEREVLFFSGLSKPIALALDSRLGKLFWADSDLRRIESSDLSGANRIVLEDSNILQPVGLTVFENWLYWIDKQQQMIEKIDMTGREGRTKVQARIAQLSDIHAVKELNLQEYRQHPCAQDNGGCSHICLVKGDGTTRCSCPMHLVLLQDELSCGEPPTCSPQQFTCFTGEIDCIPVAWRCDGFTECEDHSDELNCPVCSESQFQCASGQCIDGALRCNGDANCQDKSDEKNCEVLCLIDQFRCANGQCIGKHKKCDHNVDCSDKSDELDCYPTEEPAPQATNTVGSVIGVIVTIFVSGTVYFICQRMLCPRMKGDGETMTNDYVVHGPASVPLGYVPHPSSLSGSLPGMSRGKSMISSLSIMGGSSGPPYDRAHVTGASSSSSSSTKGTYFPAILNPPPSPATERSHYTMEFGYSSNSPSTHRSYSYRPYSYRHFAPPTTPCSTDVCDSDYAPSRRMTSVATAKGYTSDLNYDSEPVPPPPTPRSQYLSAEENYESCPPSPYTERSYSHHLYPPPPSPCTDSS

In the case of “purified mouse CACHD1 extracellular domain (CACHD1ECD) (from UniProt Q6PDJ1 50-1109) (domain or fragment)”, the Kd in assay [1] was found to be 14.2 µM; in assay [2] it was 5.86 µM; in assay [3] it was 950 nM.
